Changes are numbered by the printed parent chain. In names and notes the source's numbering stands.
B1: RsbRA (Bacillus subtilis), full length, residues 1-274, native (pET-22b), of the RsbRA-RsbS complex (natural protein, Bacillus subtilis strain 168, UniProt P42409 1-274, looked up)
chain: MMSNQTVYQFIAENQNELLQLWTDTLKELSEQESYQLTDQVYENISKEYIDILLLSVKDENAAESQISELALRAVQIGLSMKFLATALAEFWKRLYTKMNDKRLPDQESTELIWQIDRFFSPINTEIFNQYSISWEKTVSLQKIALQELSAPLIPVFENITVMPLVGTIDTERAKRIMENLLNGVVKHRSQVVLIDITGVPVVDTMVAHHIIQASEAVRLVGAKCLLAGIRPEIAQTIVNLGIDLSQVITKNTLQKGIQTALEMTDRKIVSLGE
notes: RsbRA, Bacillus subtilis strain 168 (ATCC 23857), full length, residues 1-274; N-terminal nonheme globin domain and C-terminal STAS domain; also called native RsbRA; source: E. coli BL21 Star (DE3), co-purified with 6xHis-thioredoxin-RsbS (IMAC, TEV cleavage, SEC)
B2: RsbS (Bacillus subtilis), full length, residues 1-121, tag removed (natural protein, Bacillus subtilis strain 168, UniProt P42410 1-121, looked up)
chain: MRHPKIPILKLYNCLLVSIQWELDDQTALTFQEDLLNKIYETGANGVVIDLTSVDMIDSFIAKVLGDVITMSKLMGAKVVLTGIQPAVAVTLIELGIALEEIETALDLEQGLETLKRELGE
modifications: phosphoserine at 59 (seen in the crystal structure and by peptide mass fingerprinting; likely phosphorylated during expression in E. coli)
notes: RsbS, Bacillus subtilis strain 168 (ATCC 23857), full length, residues 1-121; only a STAS domain; Dimer in solution by SEC-MALS; 60 monomers form an icosahedron in the crystal; The model holds residues 4-119 (chain A) or 5-119 (other chains); A selenomethionine-labelled form was used for phasing; also called native RsbS; Bs RsbS; source: E. coli BL21 Star (DE3), purified (IMAC, TEV cleavage, …)
B3: RsbS S59A mutant (natural protein, Bacillus subtilis)
chain: B2 chain with S59A
notes: RsbS, Bacillus subtilis, with S59A, which restricts phosphorylation; the construct is not described

Assays:
[1] = target: the molecule itself; assay: cryo-EM structure; RsbRA-RsbS complex at 0.5 mg/ml in 20 mM HEPES pH 7.5, 50 mM NaCl, 0.2 mM TCEP, 5% glycerol; single-particle reconstruction with C1, D2 or I restraints
[2] = target: the molecule itself; assay: SEC-MALS; 200 ul of 1 mg/ml RsbS on a Superdex 200 analytical column; miniDAWN TREOS II MALS and Optilab rEX detectors
[3] = target: the molecule itself; assay: crystal structure; RsbS 10 mg/ml; micro-batch at 20 C; 35% MPD, 100 mM MES/sodium hydroxide pH 6.0, 200 mM lithium sulfate; space group I23, five monomers in the asymmetric unit
[4] = target: B1; assay: cryo-EM structure; RsbRA-RsbS complex at 0.5 mg/ml in 20 mM HEPES pH 7.5, 50 mM NaCl, 0.2 mM TCEP, 5% glycerol; single-particle reconstruction with C1, D2 or I restraints; conditions: both partners purified

Row | Binder | binding result [1] | stoichiometry N [2] | stoichiometry N [3] | binding result [4]
1 | B1 | binds |  |  | 
2 | B2 |  | 2 | 60 | binds
3 | B3 |  | 2 |  | 
